Test [1] deals with T1, FLAG-NTS1 (neurotensin receptor type 1) reconstituted into PC:PG nanodiscs, neurotensin-bound (UniProt P20789 1-424).
T1 construct: Neurotensin (NT), 13 amino acid peptide, agonist kept in excess (5 uM) with the receptor; The receptor stood in ~10 nm lipid nanodiscs with the belt protein MSP1D1 (Addgene plasmid 20061, made in E. coli BL21(DE3)); MSP1D1 is not written as a chain; Primarily one receptor per disc (50:1 MSP1D1:FLAG-NTS1); also called FLAG-NTS1-PC:PG nanodiscs; NTS1-nanodiscs
T1 sequence (P20789 whole entry): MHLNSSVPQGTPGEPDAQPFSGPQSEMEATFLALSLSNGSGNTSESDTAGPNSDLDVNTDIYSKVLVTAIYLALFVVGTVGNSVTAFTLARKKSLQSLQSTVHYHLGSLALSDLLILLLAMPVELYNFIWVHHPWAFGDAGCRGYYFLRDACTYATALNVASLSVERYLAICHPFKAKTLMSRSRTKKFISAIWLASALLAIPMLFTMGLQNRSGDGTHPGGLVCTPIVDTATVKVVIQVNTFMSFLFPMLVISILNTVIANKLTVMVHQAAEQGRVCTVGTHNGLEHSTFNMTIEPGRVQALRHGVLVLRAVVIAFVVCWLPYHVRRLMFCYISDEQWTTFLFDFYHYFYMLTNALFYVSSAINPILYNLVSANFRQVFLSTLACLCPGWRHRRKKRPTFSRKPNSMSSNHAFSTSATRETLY
Description: SPR; Gα amine-coupled to a CM5 chip (Biacore T100/T200); NT-bound (5 uM NT) anti-FLAG-enriched FLAG-NTS1-PC:PG nanodiscs as analyte, serially diluted from 660 nM or 400 nM; single cycle kinetics at 30-50 ul/min; empty nanodiscs as reference, double-referenced; 50 mM Tris-HCl pH 7.4, 100 mM NaCl, 5 mM MgCl2; heterogeneous ligand binding global fit. The conditions noted are these: both partners purified.

For test [2], the target named is T1, FLAG-NTS1 (neurotensin receptor type 1) …. Put plainly: SPR; FLAG-NTS1-PC:PG nanodiscs (2500 RU) captured on an L1 chip, empty PC:PG nanodiscs (2000 RU) in the reference cell; His6-Gs as analyte, 62.5-1000 nM, 150 s per concentration at 50 ul/min; 1:1 Langmuir and heterogeneous ligand binding fits. The conditions noted are these: both partners purified.

B1: His6-Gαs (alpha subunit of the stimulatory G protein Gs) (natural protein, UniProt P63092 1-394, looked up)
chain: MGCLGNSKTEDQRNEEKAQREANKKIEKQLQKDKQVYRATHRLLLLGAGESGKSTIVKQMRILHVNGFNGEGGEEDPQAARSNSDGEKATKVQDIKNNLKEAIETIVAAMSNLVPPVELANPENQFRVDYILSVMNVPDFDFPPEFYEHAKALWEDEGVRACYERSNEYQLIDCAQYFLDKIDVIKQADYVPSDQDLLRCRVLTSGIFETKFQVDKVNFHMFDVGGQRDERRKWIQCFNDVTAIIFVVASSSYNMVIREDNQTNRLQEALNLFKSIWNNRWLRTISVILFLNKQDLLAEKVLAGKSKIEDYFPEFARYTTPEDATPEPGEDPRVTRAKYFIRDEFLRISTASGDGRHYCYPHFTCAVDTENIRRVFNDCRDIIQRMHLRQYELL
notes: Alpha subunit of Gs; construct donated by Renaud Wagner (University of Strasbourg); Also tested with GTPγS (same protein, assay a2); also called His6-Gs; His-Gαs
By Kd is commonly meant the free concentration of one partner at which half of the binding sites on the other are occupied at equilibrium, for simple one-to-one binding. High values mean lower affinity, low ones higher affinity. Turning to B1, the Kd in test [1] is 9 nM; in test [2] it was 65 nM.

Values taken from publication PMC4266533, “Kinetics of the early events of GPCR signalling” (Febs Letters, 2014).
